The target in assay [1] is PLCγ1 PLC-core (residues 13−1215, Δ488–933, H335A) (human) (UniProt P19174). As to the kind of experiment: ITC; cSH2 domain in the syringe, PLC-core in the cell. Background: In ITC the heat of successive injections is recorded.
The target of a further assay is FGFR1 kinase domain (UniProt P11362). As to the kind of experiment: ITC, two-site fit. The conditions noted are these: reference: nonphosphorylated wild-type nSH2-cSH2; sites Y783.
The target in assay [2] is T1, PLCγ1 cSH2 domain, wild type (human).
T1 sequence (P19174 whole entry, looked up): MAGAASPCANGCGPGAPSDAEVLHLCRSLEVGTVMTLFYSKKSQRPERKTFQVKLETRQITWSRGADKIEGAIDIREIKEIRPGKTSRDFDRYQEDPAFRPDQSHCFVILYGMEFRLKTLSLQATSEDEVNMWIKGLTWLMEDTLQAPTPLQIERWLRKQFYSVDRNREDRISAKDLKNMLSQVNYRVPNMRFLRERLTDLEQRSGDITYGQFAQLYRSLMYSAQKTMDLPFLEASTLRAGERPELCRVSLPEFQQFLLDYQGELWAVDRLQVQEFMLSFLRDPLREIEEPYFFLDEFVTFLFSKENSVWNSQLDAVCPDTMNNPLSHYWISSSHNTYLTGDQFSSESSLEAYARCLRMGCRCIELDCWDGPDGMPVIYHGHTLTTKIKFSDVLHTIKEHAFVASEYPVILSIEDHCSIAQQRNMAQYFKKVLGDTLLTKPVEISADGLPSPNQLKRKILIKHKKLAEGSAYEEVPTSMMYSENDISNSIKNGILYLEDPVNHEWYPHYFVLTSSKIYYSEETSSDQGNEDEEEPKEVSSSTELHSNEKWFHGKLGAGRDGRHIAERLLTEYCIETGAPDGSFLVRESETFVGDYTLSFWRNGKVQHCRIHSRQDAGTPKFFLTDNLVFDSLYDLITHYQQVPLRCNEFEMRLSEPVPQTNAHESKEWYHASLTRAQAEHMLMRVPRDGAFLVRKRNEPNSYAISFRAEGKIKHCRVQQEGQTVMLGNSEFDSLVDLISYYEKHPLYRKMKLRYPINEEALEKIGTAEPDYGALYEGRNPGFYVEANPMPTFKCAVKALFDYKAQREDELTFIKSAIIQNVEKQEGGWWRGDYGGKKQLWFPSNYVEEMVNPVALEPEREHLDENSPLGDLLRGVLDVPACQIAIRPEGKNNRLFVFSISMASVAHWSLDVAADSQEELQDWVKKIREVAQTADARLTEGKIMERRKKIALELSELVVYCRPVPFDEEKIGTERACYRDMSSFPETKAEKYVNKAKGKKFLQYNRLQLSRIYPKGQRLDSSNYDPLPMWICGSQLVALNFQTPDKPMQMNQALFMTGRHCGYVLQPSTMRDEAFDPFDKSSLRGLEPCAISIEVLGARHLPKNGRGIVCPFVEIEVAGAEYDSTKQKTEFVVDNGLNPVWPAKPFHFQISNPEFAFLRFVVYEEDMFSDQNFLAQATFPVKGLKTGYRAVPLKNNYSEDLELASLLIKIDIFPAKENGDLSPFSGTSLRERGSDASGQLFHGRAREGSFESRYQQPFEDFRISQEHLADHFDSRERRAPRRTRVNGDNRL
As to the kind of experiment: NMR titration; 15N-labelled spPH, nSH2 or cSH2 domain observed by 1H-15N HSQC, unlabelled PLC-core (H335A) added up to 1:1; 25°C; for cSH2 then the phosphopeptide NPGFpYVEANPMP to 1:1:1.

In assay [3] the target is PLCγ1 specific array of domains (γSA), wild type (human). As to the kind of experiment: ITC; FGFR1-1p in the syringe, PLCγ1 construct in the cell; corrected for heat of dilution; fit to a two-site model (nSH2-cSH2 constructs) or a one-site model (γSA).
For assay [4], the target named is T2, PLCγ1 nSH2-cSH2 Y771F,Y775F (545–790) phosphorylated on Y783 (human, UniProt P19174 545-790, Y771F | Y775F, phosphotyrosine at 783).
T2 construct: PLCγ1, tandem nSH2-cSH2 with the cSH2-SH3 linker, residues 545-790; residue numbering is for human PLCγ1; also called nSH2-cSH2^Y771F,Y775F,pY783; nSH2cSH2^pY783
T2 sequence (looked up): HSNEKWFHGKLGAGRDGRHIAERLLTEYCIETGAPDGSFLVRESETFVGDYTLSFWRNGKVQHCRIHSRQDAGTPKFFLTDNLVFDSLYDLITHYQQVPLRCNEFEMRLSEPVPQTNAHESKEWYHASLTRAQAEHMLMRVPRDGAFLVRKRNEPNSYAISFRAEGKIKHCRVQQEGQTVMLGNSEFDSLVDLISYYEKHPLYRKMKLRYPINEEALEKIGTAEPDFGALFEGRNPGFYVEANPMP
The assay is described as above. The conditions noted are these: both partners purified.

The target in assay [5] is T3, PLCγ1 tandem nSH2-cSH2 domains, wild type (human, UniProt P19174 545-790).
T3 construct: PLCγ1 (phospholipase C gamma 1), tandem nSH2 and cSH2 domains with part of the cSH2-SH3 linker; residue numbering is for human PLCγ1; also called nSH2-cSH2^wt; nSH2cSH2^WT
T3 sequence: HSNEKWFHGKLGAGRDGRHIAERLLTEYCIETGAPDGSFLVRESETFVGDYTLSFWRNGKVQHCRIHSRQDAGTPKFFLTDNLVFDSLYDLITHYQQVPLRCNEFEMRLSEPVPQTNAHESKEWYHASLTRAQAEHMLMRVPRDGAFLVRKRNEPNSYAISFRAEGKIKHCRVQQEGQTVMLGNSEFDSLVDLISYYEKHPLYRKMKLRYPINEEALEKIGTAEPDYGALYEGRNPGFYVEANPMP
The description is as above. The conditions noted are these: both partners purified.

The record followed here is paper PMC3532599, “Structural and Functional Integration of the PLCγ Interaction Domains Critical for Regulatory Mechanisms and Signaling Deregulation” (Structure(London, England:1993), 2012).

The Kd is a measure of binding affinity in units of concentration. A lower Kd goes with higher affinity. Usually stoichiometry N stands for the number of molecules, sites or subunits per partner or assembly. Take “PLCγ1 cSH2 domain N728D (domain or fragment)”: in assay [1], the Kd was 49.5 µM, the dH is -1.43 kcal/mol and the stoichiometry N was 1.17.

Turning to “PLCγ1 cSH2 domain S729Y (domain or fragment)”, in assay [1], the Kd came out at 61.3 µM, the dH was -1.45 kcal/mol and the stoichiometry N was determined as 1.

In assay [1], “PLCγ1 cSH2 domain, wild type (domain or fragment)” gave a Kd of 23.9 µM, a dH of 0.587 kcal/mol and a stoichiometry N of 1.14.

With “PLCγ1 nSH2-cSH2 tandem, 545-790 (from UniProt P19174) nSH2-cSH2 Y771F,Y775F phosphorylated at Y783”, in the assay with FGFR1 kinase domain, the KD result is “weaker; reference 0.005 ± 0.001”.

B1: PLCγ1 PLC-core (residues 13−1215, Δ488–933, H335A) (domain or fragment)
chain: GPGAPSDAEVLHLCRSLEVGTVMTLFYSKKSQRPERKTFQVKLETRQITWSRGADKIEGAIDIREIKEIRPGKTSRDFDRYQEDPAFRPDQSHCFVILYGMEFRLKTLSLQATSEDEVNMWIKGLTWLMEDTLQAPTPLQIERWLRKQFYSVDRNREDRISAKDLKNMLSQVNYRVPNMRFLRERLTDLEQRSGDITYGQFAQLYRSLMYSAQKTMDLPFLEASTLRAGERPELCRVSLPEFQQFLLDYQGELWAVDRLQVQEFMLSFLRDPLREIEEPYFFLDEFVTFLFSKENSVWNSQLDAVCPDTMNNPLSHYWISSSANTYLTGDQFSSESSLEAYARCLRMGCRCIELDCWDGPDGMPVIYHGHTLTTKIKFSDVLHTIKEHAFVASEYPVILSIEDHCSIAQQRNMAQYFKKVLGDTLLTKPVEISADGLPSPNQLKRKILIKHKKLAEGSAYEEVPTSMMYSENDISDARLTEGKIMERRKKIALELSELVVYCRPVPFDEEKIGTERACYRDMSSFPETKAEKYVNKAKGKKFLQYNRLQLSRIYPKGQRLDSSNYDPLPMWICGSQLVALNFQTPDKPMQMNQALFMTGRHCGYVLQPSTMRDEAFDPFDKSSLRGLEPCAISIEVLGARHLPKNGRGIVCPFVEIEVAGAEYDSTKQKTEFVVDNGLNPVWPAKPFHFQISNPEFAFLRFVVYEEDMFSDQNFLAQATFPVKGLKTGYRAVPLKNNYSEDLELASLLIKIDIFPAK
Regarding B1, in assay [2], the Kd stood at 25 µM.

B2: FGFR1-1p kinase domain (pY766) (domain or fragment, UniProt P11362 458-774, looked up)
chain: AGVSEYELPEDPRWELPRDRLVLGKPLGEGCFGQVVLAEAIGLDKDKPNRVTKVAVKMLKSDATEKDLSDLISEMEMMKMIGKHKNIINLLGACTQDGPLYVIVEYASKGNLREYLQARRPPGLEYCYNPSHNPEEQLSSKDLVSCAYQVARGMEYLASKKCIHRDLAARNVLVTEDNVMKIADFGLARDIHHIDYYKKTTNGRLPVKWMAPEALFDRIYTHQSDVWSFGVLLWEIFTLGGSPYPGVPVEELFKLLKEGHRMDKPSNCTNELYMMMRDCWHAVPSQRPTFKQLVEDLDRIVALTSNQEYLDLSMPLD
modifications: phosphotyrosine at 766
notes: fibroblast growth factor receptor 1 (FGFR1), kinase domain with the C-terminal tail holding pY766; see the Supplemental Experimental Procedures
In assay [3], B2 had a Kd of 0.185 µM, a dH of -7.09 kcal/mol and a stoichiometry N of 1.03. For the same molecule, in assay [4], the “dH, first binding event” value is -8.307 ± 0.025 kcal/mol and the “dH, second binding event” value was found to be 37.7 ± 5.13 kcal/mol. Besides, in assay [5], the “dH, first binding event” value is -6.5 ± 0.183 kcal/mol and the “dH, second binding event” value was 7.12 ± 0.23 kcal/mol.
